Experimental data as given in US20220324953A1 (JIANGSU HENGRUI MEDICINE, published 2022).
Numbering of substitutions follows the chain as printed. One block for each binder: values may come before it.

What was measured:
[1] = target: T1, human CTGF (antigen of the Biacore assays) (human, UniProt P29279 27-349); experiment: Biacore, antibody captured on Protein A, CTGF in flow, 1:1 fit
T1 construct: also called antigen human CTGF; human CTGF protein
T1 sequence (looked up): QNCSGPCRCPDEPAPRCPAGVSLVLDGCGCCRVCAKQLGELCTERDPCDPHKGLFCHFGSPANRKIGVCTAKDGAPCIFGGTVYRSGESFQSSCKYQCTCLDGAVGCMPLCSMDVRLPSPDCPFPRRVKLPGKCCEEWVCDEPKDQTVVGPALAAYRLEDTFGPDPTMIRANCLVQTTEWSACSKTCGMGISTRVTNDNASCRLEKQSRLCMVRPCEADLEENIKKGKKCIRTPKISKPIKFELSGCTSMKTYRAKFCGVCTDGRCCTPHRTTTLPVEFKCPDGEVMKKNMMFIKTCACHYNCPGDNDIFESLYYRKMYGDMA
From the text: (§1) A certain amount of each of the test antibodies was affinity-captured with Protein A biosensor chip (Cat. # 29127556, GE), and then a certain concentration of human or mouse CTGF was allowed to flow through the surface of the chip. The reaction signals were detected in real time with Biacore instrument to generate a binding and dissociation curve. After the dissociation was completed in each cycle, the biosensor chip was washed and regenerated with Glycine-HCl regeneration solution pH 1.5 (Cat. # BR-1003-54, GE). The running buffer for the assay was 1×HBS-EP buffer solution (Cat. # BR-1001-88, GE).

[2] = target: T2, mouse CTGF (antigen of the Biacore assay) (mouse, UniProt P29268 26-348); experiment: Biacore, antibody captured on Protein A, mouse CTGF in flow, 1:1 fit
T2 construct: also called mouse CTGF protein
T2 sequence (looked up): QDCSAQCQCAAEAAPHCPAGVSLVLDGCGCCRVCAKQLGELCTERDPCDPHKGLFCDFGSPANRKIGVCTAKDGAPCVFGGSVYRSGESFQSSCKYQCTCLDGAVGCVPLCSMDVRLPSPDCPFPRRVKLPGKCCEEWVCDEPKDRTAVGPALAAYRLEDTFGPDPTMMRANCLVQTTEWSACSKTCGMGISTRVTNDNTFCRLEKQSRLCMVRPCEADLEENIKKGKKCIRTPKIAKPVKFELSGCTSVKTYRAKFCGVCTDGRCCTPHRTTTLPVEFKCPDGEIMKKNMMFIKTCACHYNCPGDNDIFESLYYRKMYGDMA
From the text: as §1

- Kd [1]: 0.133 nM
- koff [1]: 0.00883 s⁻¹
- kon [1]: 6.62e+07 M⁻¹ s⁻¹
- Kd [2]: 0.0822 nM
- koff [2]: 0.0101 s⁻¹
- kon [2]: 1.23e+08 M⁻¹ s⁻¹
B1: chimeric antibody Ch164 (antibody, human IgG1, lambda, V domains shown)
VH: QVQLKQSGPGLVQPSQSLSITCTVSGFSLTTFGVHWIRQSPGKGLEWLGVIWRRGGTDYNAAFMSRLSITKDNSRSHVFFKMTSLQTDDSAIYYCARDGGFDYWGQGTTLTVSS
VL: QAVVTQESALTTSPGGTVILTCRSSIGAVTTSNYANWVQEKPDHLFTGLIGGTSNRAPGVPVRFSGSLIGDKAALTITGAQAEDDAMYFCALWYSTHYVFGGGTKVTVLG

- Kd [1]: 0.466 nM
- koff [1]: 0.00693 s⁻¹
- kon [1]: 1.49e+07 M⁻¹ s⁻¹
- Kd [2]: 1.23 nM
- koff [2]: 0.0384 s⁻¹
- kon [2]: 3.12e+07 M⁻¹ s⁻¹
B2: chimeric antibody Ch147 (antibody, human IgG1, kappa, V domains shown)
VH: EVQLVESGGGLVQPEGSLKLSCAASGFSFNTYAMNWVRQAPGKGLEWVARIRTKSNNYATYYADSVKDRFTISRDDSESMLYLQMNNLKTEDTAMYYCVETGFAYWDQGTLVTVSA
VL: QIVLTQSPAIMSASPGEKVTITCSASSSVSYMHWFQQKPGTSPKLWIYSTSNLASGVPARFSGSGSGTSYSLTISRMEAEDAATYYCQQRSSYPLTFGAGTKLELKR

- Kd [1]: 5.29 nM
- koff [1]: 0.0408 s⁻¹
- kon [1]: 7.7e+06 M⁻¹ s⁻¹
- Kd [2]: 2.44 nM
- koff [2]: 0.0339 s⁻¹
- kon [2]: 1.39e+07 M⁻¹ s⁻¹
B3: Hu95-41wk (antibody, human IgG1, kappa, V domains shown)
VH: EVQLVQSGAEVKKPGASVKVSCKASGFTFTNYDIHWVKQAPGQRLEWIGLVYPYNGGTAYNQKFKDKATLTFDTSASTAYMELSSLRSEDTAVYYCARWGLIPGTTSYFDVWGQGTTVTVSS
VL: EIVLTQSPATLSLSPGERATLSCRASSSVSYIHWYQQKPGQAPRPWIYATSNLASGIPARFSGSGSGTDYTLTISRLEPEDFAVYYCQQWNSNPWTFGGGTKVEIKR

- Kd [1]: 7.39 nM
- koff [1]: 0.0303 s⁻¹
- kon [1]: 4.09e+06 M⁻¹ s⁻¹
- Kd [2]: 3.99 nM
- koff [2]: 0.0211 s⁻¹
- kon [2]: 5.29e+06 M⁻¹ s⁻¹
B4: Hu95-21wk (antibody, human IgG1, kappa, V domains shown)
VH: B3 VH with K38R, K67R
VL: B3 VL

- Kd [1]: 5.74 nM
- koff [1]: 0.0191 s⁻¹
- kon [1]: 3.32e+06 M⁻¹ s⁻¹
- Kd [2]: 2.42 nM
- koff [2]: 0.0137 s⁻¹
- kon [2]: 5.66e+06 M⁻¹ s⁻¹
B5: Hu95-42wk (antibody, human IgG1, kappa, V domains shown)
VH: B3 VH
VL: B3 VL with A42S, I57V, D69S

- Kd [1]: 5.84 nM
- koff [1]: 0.0326 s⁻¹
- kon [1]: 5.59e+06 M⁻¹ s⁻¹
- Kd [2]: 2.87 nM
- koff [2]: 0.0225 s⁻¹
- kon [2]: 7.84e+06 M⁻¹ s⁻¹
B6: Hu95-31wk (antibody, human IgG1, kappa, V domains shown)
VH: B3 VH with I48M, A68V
VL: B3 VL

- Kd [1]: 3.85 nM
- koff [1]: 0.0302 s⁻¹
- kon [1]: 7.85e+06 M⁻¹ s⁻¹
- Kd [2]: 1.71 nM
- koff [2]: 0.0235 s⁻¹
- kon [2]: 1.38e+07 M⁻¹ s⁻¹
B7: chimeric antibody Ch95 (antibody, human IgG1, kappa, V domains shown)
VH: EVLLQQSGPVLVKPGPSVKISCKASGFTFTNYDIHWVKQSHGKSLEWIGLVYPYNGGTAYNQKFKDKATLTFDTSSSTAYMELNSLTSEDSAVYYCARWGLIPGTTSYFDVWGTGTTVTVSS
VL: QIVLSQSPPILSASPGEKVTMTCRASSSVSYIHWYQQKPRSSPKPWIYATSNLASGVPARFSGSGSGTSYSLTISRVEAEDAATYYCQQWNSNPWTFGGGTRLEIKR
